The assay has as its target AβO(1-42), oligomeric non-fibrillar Aβ prepared from the peptide Aβ_(1-42) (UniProt P05067 672-713). Briefly: SPR.

These results are taken from publication PMC5533101 (Journal of Alzheimer's disease : JAD, 2004).

Broadly, the Kd is the constant that tells how readily two partners part at equilibrium. A high value points to weaker binding.

B1: TR#2, recombinant TR segment containing the extracellular domain (ectodomain) (domain or fragment, UniProt Q9UIK5 56-301, looked up)
chain: CSGYDDRENDLFLCDTNTCKFDGECLRIGDTVTCVCQFKCNNDYVPVCGSNGESYQNECYLRQAACKQQSEILVVSEGSCATDAGSGSGDGVHEGSGETSQKETSTCDICQFGAECDEDAEDVWCVCNIDCSQTNFNPLCASDGKSYDNACQIKEASCQKQEKIEVMSLGRCQDNTTTTTKSEDGHYARTDYAENANKLEESAREHHIPCPEHYNGFCMHGKCEHSINMQEPSCRCDAGYTGQHCE
In turn, B1 returned a Kd of 76.8 nM.
